Results taken from publication PMC7356834.

Key:
[1] = test system: T1, APASM_1021 (AdpA-like protein) (Actinosynnema pretiosum ATCC 31280), ORF:1b9350d8; assay: competition; settings: 10 mM Tris-HCl pH 7.5, 1 mM EDTA, 100 mM KCl, 5% glycerol, 0.1 DTT (unit not given), 0.01 mg/mL BSA; 30 min at 30 C; 10% native PAGE at 4 C
T1 sequence: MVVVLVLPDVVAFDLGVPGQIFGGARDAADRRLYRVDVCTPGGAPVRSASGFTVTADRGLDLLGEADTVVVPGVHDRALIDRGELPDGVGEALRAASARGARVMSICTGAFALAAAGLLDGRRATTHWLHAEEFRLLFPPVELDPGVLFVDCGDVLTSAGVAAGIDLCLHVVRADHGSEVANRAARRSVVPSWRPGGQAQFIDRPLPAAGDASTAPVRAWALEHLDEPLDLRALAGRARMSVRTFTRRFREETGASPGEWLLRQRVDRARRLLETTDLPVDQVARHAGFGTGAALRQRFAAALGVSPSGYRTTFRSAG

[2] = test system: T1, APASM_1021 (AdpA-like protein) (Actinosynnema pretiosum ATCC 31280), ORF:1b9350d8; assay: EMSA; settings: 10 mM Tris-HCl pH 7.5, 1 mM EDTA, 100 mM KCl, 5% glycerol, 0.1 DTT (unit not given), 0.01 mg/mL BSA; 30 min at 30 C; 10% native PAGE at 4 C

Q: For “TGGAGCCGCTGACGGGGAGCCATCGACGGGAAGCCGCTGACCGGCCTCTCCGCGCCGCCACGCGGGCGCCGCACCTGAACCAGGTGCGGCGCCCGCGTGGTCGCGCCCTTTGACCCCGCCCCCGTTCCCCT (double strand) [P4178 unlabeled competitor]”, which binding [1] is on record?
A: binds

Q: “TGGAGCCGCTGACGGGGAGCCATCGACGGGAAGCCGCTGACCGGCCTCTCCGCGCCGCCACGCGGGCGCCGCACCTGAACCAGGTGCGGCGCCCGCGTGGTCGCGCCCTTTGACCCCGCCCCCGTTCCCCT (double strand) [P4178]” was tested. Which binding [2] did it give?
A: binds
